Here are results for two substances from patent US6534281.

Experiment [1] has as its target human C-peptide (human). Description: sandwich immunoassay, one-step; 9103 on particles, labeled antibody 9101.
Experiment [2] has as its target human C-peptide (human). Description: sandwich immunoassay, two-step; 9103 on particles, labeled antibody 9101.
The target of experiment [3] is human C-peptide (human). Description: sandwich immunoassay, one-step; 9103 on particles, labeled antibody PEP-001.
Experiment [4] has as its target human C-peptide (human). Description: sandwich immunoassay, two-step; 9103 on particles, labeled antibody PEP-001.
The target in experiment [5] is human proinsulin (human) (UniProt P01308). Description: sandwich immunoassay, one-step, against C-peptide calibration; proinsulin 50 ng/ml; 9103 on particles, labeled antibody 9101.
The target is the same in experiment [6]. Description: sandwich immunoassay, two-step, against C-peptide calibration; proinsulin 50 ng/ml; 9103 on particles, labeled antibody 9101.
For experiment [7] the target is unchanged. Description: sandwich immunoassay, one-step, against C-peptide calibration; proinsulin 200 ng/ml; 9103 on particles, labeled antibody 9101.
Experiment [8] shares this target. Description: sandwich immunoassay, one-step, against C-peptide calibration; proinsulin 400 ng/ml; 9103 on particles, labeled antibody 9101.
Experiment [9] has the same target. Description: sandwich immunoassay, two-step, against C-peptide calibration; proinsulin 200 ng/ml; 9103 on particles, labeled antibody 9101.
Experiment [10] has the same target. Description: sandwich immunoassay, two-step, against C-peptide calibration; proinsulin 400 ng/ml; 9103 on particles, labeled antibody 9101.
The target is the same in experiment [11]. Description: sandwich immunoassay, one-step, against C-peptide calibration; proinsulin 50 ng/ml; 9103 on particles, labeled antibody PEP-001.
Experiment [12] shares this target. Description: sandwich immunoassay, two-step, against C-peptide calibration; proinsulin 50 ng/ml; 9103 on particles, labeled antibody PEP-001.
Experiment [13] has the same target. Description: sandwich immunoassay, one-step, against C-peptide calibration; proinsulin 200 ng/ml; 9103 on particles, labeled antibody PEP-001.
Experiment [14] shares this target. Description: sandwich immunoassay, one-step, against C-peptide calibration; proinsulin 400 ng/ml; 9103 on particles, labeled antibody PEP-001.
For experiment [15] the target is unchanged. Description: sandwich immunoassay, two-step, against C-peptide calibration; proinsulin 200 ng/ml; 9103 on particles, labeled antibody PEP-001.
The target is the same in experiment [16]. Description: sandwich immunoassay, two-step, against C-peptide calibration; proinsulin 400 ng/ml; 9103 on particles, labeled antibody PEP-001.
Experiment [17] concerns the target modified C-peptide (human C-peptide having Arg-Arg bound to its N-terminal and Lys-Arg bound to its C-terminal) (human). Description: sandwich immunoassay, one-step, against C-peptide calibration; modified C-peptide 5 ng/ml; 9103 on particles, labeled antibody 9101.
Experiment [18] shares this target. Description: sandwich immunoassay, two-step, against C-peptide calibration; modified C-peptide 5 ng/ml; 9103 on particles, labeled antibody 9101.
Experiment [19] shares this target. Description: sandwich immunoassay, one-step, against C-peptide calibration; modified C-peptide 5 ng/ml; 9103 on particles, labeled antibody PEP-001.
Experiment [20] shares this target. Description: sandwich immunoassay, two-step, against C-peptide calibration; modified C-peptide 5 ng/ml; 9103 on particles, labeled antibody PEP-001.
The target in experiment [21] is human C-peptide (human). Description: sandwich immunoassay, one-step; PEP-001 on particles, labeled antibody 9103.
Experiment [22] addresses human C-peptide (human). Description: sandwich immunoassay, two-step; PEP-001 on particles, labeled antibody 9103.
Experiment [23] deals with human C-peptide (human). Description: sandwich immunoassay, one-step; PEP-001 on particles, labeled antibody CPT-3F-11.
In experiment [24] the target is human C-peptide (human). Description: sandwich immunoassay, two-step; PEP-001 on particles, labeled antibody CPT-3F-11.
Experiment [25] addresses human proinsulin (human) (UniProt P01308). Description: sandwich immunoassay, one-step, against C-peptide calibration; proinsulin 50 ng/ml; PEP-001 on particles, labeled antibody 9103.
Experiment [26] shares this target. Description: sandwich immunoassay, two-step, against C-peptide calibration; proinsulin 50 ng/ml; PEP-001 on particles, labeled antibody 9103.
The target is the same in experiment [27]. Description: sandwich immunoassay, one-step, against C-peptide calibration; proinsulin 200 ng/ml; PEP-001 on particles, labeled antibody 9103.
The target is the same in experiment [28]. Description: sandwich immunoassay, one-step, against C-peptide calibration; proinsulin 400 ng/ml; PEP-001 on particles, labeled antibody 9103.
For experiment [29] the target is unchanged. Description: sandwich immunoassay, two-step, against C-peptide calibration; proinsulin 200 ng/ml; PEP-001 on particles, labeled antibody 9103.
Experiment [30] has the same target. Description: sandwich immunoassay, two-step, against C-peptide calibration; proinsulin 400 ng/ml; PEP-001 on particles, labeled antibody 9103.
Experiment [31] shares this target. Description: sandwich immunoassay, one-step, against C-peptide calibration; proinsulin 50 ng/ml; PEP-001 on particles, labeled antibody CPT-3-F11.
The target is the same in experiment [32]. Description: sandwich immunoassay, two-step, against C-peptide calibration; proinsulin 50 ng/ml; PEP-001 on particles, labeled antibody CPT-3-F11.
The target is the same in experiment [33]. Description: sandwich immunoassay, one-step, against C-peptide calibration; proinsulin 200 ng/ml; PEP-001 on particles, labeled antibody CPT-3-F11.
Experiment [34] shares this target. Description: sandwich immunoassay, one-step, against C-peptide calibration; proinsulin 400 ng/ml; PEP-001 on particles, labeled antibody CPT-3-F11.
Experiment [35] has the same target. Description: sandwich immunoassay, two-step, against C-peptide calibration; proinsulin 200 ng/ml; PEP-001 on particles, labeled antibody CPT-3-F11.
Experiment [36] shares this target. Description: sandwich immunoassay, two-step, against C-peptide calibration; proinsulin 400 ng/ml; PEP-001 on particles, labeled antibody CPT-3-F11.
For experiment [37], the target named is modified C-peptide (human C-peptide having Arg-Arg bound to its N-terminal and Lys-Arg bound to its C-terminal) (human). Description: sandwich immunoassay, one-step, against C-peptide calibration; modified C-peptide 5 ng/ml; PEP-001 on particles, labeled antibody 9103.
Experiment [38] has the same target. Description: sandwich immunoassay, two-step, against C-peptide calibration; modified C-peptide 5 ng/ml; PEP-001 on particles, labeled antibody 9103.
Experiment [39] shares this target. Description: sandwich immunoassay, one-step, against C-peptide calibration; modified C-peptide 5 ng/ml; PEP-001 on particles, labeled antibody CPT-3F-11.
Experiment [40] has the same target. Description: sandwich immunoassay, two-step, against C-peptide calibration; modified C-peptide 5 ng/ml; PEP-001 on particles, labeled antibody CPT-3F-11.

Sequence of UniProt P01308 (P01308 25-110): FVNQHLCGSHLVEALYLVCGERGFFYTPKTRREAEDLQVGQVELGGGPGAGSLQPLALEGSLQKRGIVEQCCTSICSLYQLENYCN
Sequence of human C-peptide (human) (peptide, as listed by the source): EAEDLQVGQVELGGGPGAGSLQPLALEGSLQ
Sequence of modified C-peptide (human C-peptide having Arg-Arg bound to its N-terminal and Lys-Arg bound to its C-terminal) (human) (peptide, as listed by the source): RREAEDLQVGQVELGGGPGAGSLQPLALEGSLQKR

Regarding “anti-human C-peptide monoclonal antibody 9103 (Medix Biochemica)”, the 2S/N value with human C-peptide (human) [1] was 0.117 ng/mL; with human C-peptide (human) [2], 0.167 ng/mL; with human C-peptide (human) [3], 0.009 ng/mL; with human C-peptide (human) [4], 0.018 ng/mL. Further, the Cross-reactivity (%) to Human Proinsulin with human proinsulin (human) [5] worked out at 3.2%; with human proinsulin (human) [6] it was 2.3%; in the experiment with human proinsulin (human) [7], 5.8%; in the experiment with human proinsulin (human) [8], 6.9%; with human proinsulin (human) [9] it was 4.4%; in the experiment with human proinsulin (human) [10] it was 6.8%. Also, the Cross-reactivity (%) to Human Proinsulin in the experiment with human proinsulin (human) [11] was 58%; in the experiment with human proinsulin (human) [12], 65.2%; in the experiment with human proinsulin (human) [13], greater than 30%; with human proinsulin (human) [14] it was greater than 15%; with human proinsulin (human) [15], greater than 30%; with human proinsulin (human) [16], greater than 15%. The Cross-reactivity (%) to Modified C-peptide in [17] is less than 0.5%; in experiment [18], less than 0.5%; in experiment [19], 58.2%; in experiment [20], 38.6%.

In the case of “anti-human C-peptide monoclonal antibody PEP-001 (Dako)”, the 2S/N value in the experiment with human C-peptide (human) [21] was 0.781 ng/mL; with human C-peptide (human) [22], 0.591 ng/mL; in the experiment with human C-peptide (human) [23], 0.191 ng/mL; with human C-peptide (human) [24], 0.271 ng/mL. Besides, the Cross-reactivity (%) to Human Proinsulin is greater than 120% in the experiment with human proinsulin (human) [25]; greater than 120% with human proinsulin (human) [26]; greater than 30% with human proinsulin (human) [27]; greater than 15% with human proinsulin (human) [28]; greater than 30% in the experiment with human proinsulin (human) [29]; greater than 15% in the experiment with human proinsulin (human) [30]. Also, the Cross-reactivity (%) to Human Proinsulin with human proinsulin (human) [31] was greater than 120%; with human proinsulin (human) [32] it was greater than 120%; with human proinsulin (human) [33], greater than 30%; with human proinsulin (human) [34], greater than 15%; in the experiment with human proinsulin (human) [35] it was greater than 30%; with human proinsulin (human) [36], greater than 15%. For the same substance, the Cross-reactivity (%) to Modified C-peptide in [37] turned out to be 35%; in experiment [38], 38.3%; in experiment [39], 98.5%; in [40], 80%.
